Measurements published in publication PMC6888877, “Deconstructing and repurposing the light-regulated interplay between Arabidopsis phytochromes and interacting factors” (Communications Biology, 2019).

T1: Arabidopsis thaliana phytochrome B photosensory core module (AtPhyB PCM) (Arabidopsis thaliana, UniProt P14713 1-651, covalently incorporated bilin chromophore (PCB; co-expressed Synechocystis sp. heme oxygenase 1 and pcyA))
T1 construct: A. thaliana phytochrome B, photosensory core module (PAS-GAF-PHY with N-terminal extension), residues 1-651; Pr state (far-red light or dark) and Pfr state (red light; Pfr/Pr about 0.56/0.44) are told apart by the assays; In the cell experiments other constructs were used (PCM-VP16; PCM 1-650 with CAAX); source: E. coli BL21(DE3), plasmid pDG282, purified (Ni-NTA IMAC, anion exchange)
T1 sequence (looked up): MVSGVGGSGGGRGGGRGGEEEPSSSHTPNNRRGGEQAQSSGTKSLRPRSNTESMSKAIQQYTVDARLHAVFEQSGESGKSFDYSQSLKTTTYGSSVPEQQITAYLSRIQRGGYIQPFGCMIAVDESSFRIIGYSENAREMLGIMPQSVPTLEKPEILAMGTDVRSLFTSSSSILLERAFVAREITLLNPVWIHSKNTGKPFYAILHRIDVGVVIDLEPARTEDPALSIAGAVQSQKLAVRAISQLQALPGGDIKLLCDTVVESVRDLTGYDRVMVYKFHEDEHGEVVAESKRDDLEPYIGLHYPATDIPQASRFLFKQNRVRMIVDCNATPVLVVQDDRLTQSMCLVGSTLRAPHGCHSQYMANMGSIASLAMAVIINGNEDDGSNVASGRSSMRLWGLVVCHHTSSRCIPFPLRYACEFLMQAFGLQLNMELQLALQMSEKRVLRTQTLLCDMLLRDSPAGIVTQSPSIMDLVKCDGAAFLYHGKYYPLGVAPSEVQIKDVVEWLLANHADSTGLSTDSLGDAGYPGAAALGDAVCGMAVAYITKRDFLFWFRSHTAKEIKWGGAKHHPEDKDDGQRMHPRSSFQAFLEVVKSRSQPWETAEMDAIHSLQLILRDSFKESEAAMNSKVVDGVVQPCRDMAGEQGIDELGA

B1: P3 (AtPIF3 1-100 without the N-terminal region preceding APB.A)-EYFP (domain or fragment)
chain: MVDEVVELVWENGQISTQSQSSRSRNIPPPQANSSRAREIGNGSKTTMVDEIPMSVPSLMTGLSQDDDFVPWLNHH
B2: AtPIF3 (1-100)-EYFP, P3.100 (domain or fragment, Arabidopsis thaliana, UniProt O80536 1-100, looked up)
chain: MPLFELFRLTKAKLESAQDRNPSPPVDEVVELVWENGQISTQSQSSRSRNIPPPQANSSRAREIGNGSKTTMVDEIPMSVPSLMTGLSQDDDFVPWLNHH
notes: A. thaliana PIF3, residues 1-100; His6-SUMO only on the pET-19b construct that was purified; the pET-28c construct used in lysate has the same AtPIF part, linker and EYFP; also called P3.100-EYFP; source: E. coli BL21(DE3): in crude lysate (pET-28c), and purified (pET-19b; IMAC, SENP2 cleavage, second IMAC, optional anion exchange); not shown: His6-SUMO, N-terminal, cleaved
B3: P6.AA-EYFP (domain or fragment)
chain: MDQEYMELVFENGQILAKGQRSNVSLHNQRTKSIMDLYEAEYNEDFMKSIIHGGGGDQEYMELVFENGQILAKGQRSNTNMLESNKHVD
B4: P3.A-EYFP (domain or fragment)
chain: MVDEVVELVWENGQISTQSQSSRSRNIPPPQANSSRAREIGN
B5: P6.fus-EYFP (domain or fragment)
chain: MDQEYMELVFENGQILAKGQRSNAITNLGDTQVVPQSHVAAAHETNMLESNKHVD
B6: P6.AAfus-EYFP (domain or fragment)
chain: MDQEYMELVFENGQILAKGQRSNDQEYMELVFENGQILAKGQRSNTNMLESNKHVD
B7: P3.AAfus-EYFP (domain or fragment)
chain: MVDEVVELVWENGQISTQSQSSRSRVDEVVELVWENGQISTQSQSSRSRFVPWLNHH
B8: P3.AA-EYFP (domain or fragment)
chain: MVDEVVELVWENGQISTQSQSSRSRNIPPPQANSSRAREIGNGSKTTMVDEIPMSVPSLVDEVVELVWENGQISTQSQSSRSRFVPWLNHH
B9: AtPIF6 (1-100)-EYFP, P6.100 (domain or fragment, Arabidopsis thaliana, UniProt Q8L5W7 1-100, looked up)
chain: MMFLPTDYCCRLSDQEYMELVFENGQILAKGQRSNVSLHNQRTKSIMDLYEAEYNEDFMKSIIHGGGGAITNLGDTQVVPQSHVAAAHETNMLESNKHVD
notes: A. thaliana PIF6, residues 1-100; His6-SUMO only on the pET-19b construct that was purified; the pET-28c construct used in lysate has the same AtPIF part, linker and EYFP; also called P6.100-EYFP; source: E. coli BL21(DE3): in crude lysate (pET-28c), and purified (pET-19b; IMAC, SENP2 cleavage, second IMAC, optional anion exchange); not shown: His6-SUMO, N-terminal, cleaved
B10: P6 (AtPIF6 1-100 without the N-terminal region preceding APB.A)-EYFP (domain or fragment)
chain: MDQEYMELVFENGQILAKGQRSNVSLHNQRTKSIMDLYEAEYNEDFMKSIIHGGGGAITNLGDTQVVPQSHVAAAHETNMLESNKHVD

target: T1, Arabidopsis thaliana phytochrome B …; assay: fluorescence polarisation; anisotropy of EYFP; 20 nM AtPIF-EYFP constant, AtPhyB PCM 0-10 µM titrated, far-red light (750 nm), Pr state; 20 mM HEPES/HCl pH 7.3, 10 mM NaCl, 100 µg/mL BSA; single-site isotherm; conditions: both partners purified

Row | Kd [nM] | Binder
1 | > 10000 | MVDEVVELVWENGQISTQSQSSRSRMTGLSQDDDFVPWLNHH (domain or fragment) [P3.fus-EYFP]
2 | > 10000 | B1
3 | > 2000 | B2
4 | > 2000 | B3
5 | > 2000 | MDQEYMELVFENGQILAKGQRSNVSLHNQRTKSIMDLYEA (domain or fragment) [P6.A-EYFP]
6 | > 10000 | MDQEYMELVFENGQILAKGQRSN (domain or fragment) [P6.As-EYFP]
7 | > 10000 | B4
8 | > 10000 | B5
9 | > 10000 | B6
10 | > 10000 | B7
11 | > 3000 | B8
12 | > 10000 | MVDEVVELVWENGQISTQSQSSRSR (domain or fragment) [P3.As-EYFP]

Target: the molecule itself
Assay: SEC; AtPIF-EYFP variants or EYFP alone, 10 µM, not illuminated; Superdex 200 Increase 10/300 GL; 67 mM sodium phosphate pH 8.0, 200 mM NaCl
Conditions: not given

Row | Binder | stoichiometry N
13 | B1 | 2
14 | B2 | 2
15 | B3 | 2
16 | B5 | 2
17 | B9 | 2
18 | B8 | 2

Target: B4
Assay: as above
Conditions: not given

Row | stoichiometry N | Binder
19 | 2 | B4

target: T1, Arabidopsis thaliana phytochrome B …; assay: fluorescence polarisation; anisotropy of EYFP; 20 nM AtPIF-EYFP constant, AtPhyB PCM 0-10 µM titrated, red light (640 nm), Pfr state; KD corrected for the Pfr fraction (about 0.56); 20 mM HEPES/HCl pH 7.3, 10 mM NaCl, 100 µg/mL BSA; single-site isotherm; conditions: both partners purified

Row | Kd [nM] | Binder
20 | 270 ± 60 | MVDEVVELVWENGQISTQSQSSRSRMTGLSQDDDFVPWLNHH (domain or fragment) [P3.fus-EYFP]
21 | 220 ± 40 | B1
22 | 200 ± 70 | B2
23 | 360 ± 40 | B3
24 | 280 ± 100 | MDQEYMELVFENGQILAKGQRSNVSLHNQRTKSIMDLYEA (domain or fragment) [P6.A-EYFP]
25 | 710 ± 80 | MDQEYMELVFENGQILAKGQRSN (domain or fragment) [P6.As-EYFP]
26 | 220 ± 40 | B4
27 | > 2000 | MDQEYMELVFENGQILAKGQ (domain or fragment) [P6.A19-EYFP]
28 | 200 ± 90 | B5
29 | 230 ± 30 | B6
30 | 10 ± 8 | B9
31 | 230 ± 50 | B7
32 | 370 ± 40 | B8
33 | 10 ± 7 | B10
34 | 680 ± 60 | MVDEVVELVWENGQISTQSQSSRSR (domain or fragment) [P3.As-EYFP]
35 | > 1000 | MVDEVVELVWENGQISTQSQ (domain or fragment) [P3.A19-EYFP]
